According to the supplement of paper PMC10567573:

B1: HSP90AB1 (parent)
chain: QVANSAFVERVRKRGFEVVYMTEP

Variants of: B1
Experiment: protein stability index of a GFP-peptide fusion (GPS, HEK-293T) (PSI 1-6); higher = more stable
Settings: c terminus: a fixed tail appended
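Also: lentivirally expressed fusions sorted by FACS into six bins by GFP to DsRed ratio, PSI derived from sequencing read proportions per bin multiplied by bin number.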

Variant	protein stability index
QVANSAFVEFVRKRGFEVVYMTEP [R10F]	1.29
QVANSAFVEIVRKRGFEVVYMTEP [R10I]	1.94
QVANSAFVEMVRKRGFEVVYMTEP [R10M]	1.54
QVANSAFVELVRKRGFEVVYMTEP [R10L]	1.81
QVANSAFVENVRKRGFEVVYMTEP [R10N]	2.99
QVANSAFVEEVRKRGFEVVYMTEP [R10E]	2.28
QVANSAFVEQVRKRGFEVVYMTEP [R10Q]	2.17
QVANSAFVEHVRKRGFEVVYMTEP [R10H]	2.33
QVANSAFVERVRKRGNEVVYMTEP [F16N]	3.3
QVANSAFVERVRKRGSEVVYMTEP [F16S]	3.64
QVANSAFVERVRKRGKEVVYMTEP [F16K]	3.2
QVANSAFVERVRKRGAEVVYMTEP [F16A]	3.87
QVANSAFVERVRKRGIEVVYMTEP [F16I]	2.61
QVANSAFVERVRKRGREVVYMTEP [F16R]	2.98
QVANSAFVERVRKRGCEVVYMTEP [F16C]	2.71
QVANSAFVERVRKRGLEVVYMTEP [F16L]	2.52
QVANSAFVERVRKRGVEVVYMTEP [F16V]	2.64
QVANSAFVERVRKRGYEVVYMTEP [F16Y]	2.11
QVANSAFVERVRKRGTEVVYMTEP [F16T]	3.1
QVANSAFVERVRKRGEEVVYMTEP [F16E]	4.47
QVANSAFVERVRKRGWEVVYMTEP [F16W]	2.04
QVANSAFVERVRKRGHEVVYMTEP [F16H]	3.05
QVANSAFVERVRKRGQEVVYMTEP [F16Q]	4.2
QVANSAFVERVRKRGMEVVYMTEP [F16M]	2.73

Variant	protein stability index
QVANSAFVERVRKRGDEVVYMTEP [F16D]	4.16
QVANSAFVERVRKRGGEVVYMTEP [F16G]	3.28
QVANSAFVERVRKRGPEVVYMTEP [F16P]	3.05
QVANSAFVERVRKRGFEEVYMTEP [V18E]	2.99
QVANSAFVERVRKRGFEHVYMTEP [V18H]	2.83
QVANSAFVERVRKRGFELVYMTEP [V18L]	2.58
QVANSAFVERVRKRGFENVYMTEP [V18N]	3.1
QVANSAFVERVRKRGFEKVYMTEP [V18K]	2.12
QVANSAFVERVRKRGFEPVYMTEP [V18P]	2.47
QVANSAFVERVRKRGFECVYMTEP [V18C]	2.38
QVANSAFVERVRKRGFEDVYMTEP [V18D]	2.88
QVANSAFVERVRKRGFETVYMTEP [V18T]	2.67
QVANSAFVERVRKRGFEAVYMTEP [V18A]	2.96
QVANSAFVERVRKRGFEFVYMTEP [V18F]	1.85
QVANSAFVERVRKRGFEQVYMTEP [V18Q]	2.59
QVANSAFVERVRKRGFESVYMTEP [V18S]	2.57
QVANSAFVERVRKRGFEWVYMTEP [V18W]	2.05
QVANSAFVERVRKRTFEVVYMTEP [G15T]	2.72
QVANSAFVERVRKRYFEVVYMTEP [G15Y]	1.61
QVANSAFVERVRKRCFEVVYMTEP [G15C]	1.79
QVANSAFVERVRKRMFEVVYMTEP [G15M]	2.07
QVANSAFVERVRKRAFEVVYMTEP [G15A]	2.01
QVANSAFVERVRKRVFEVVYMTEP [G15V]	2.19
QVANSAFVERVRKRRFEVVYMTEP [G15R]	1.98

Variant	protein stability index
QVANSAFVERVRKRDFEVVYMTEP [G15D]	3.3
QVANSAFVERVRKRHFEVVYMTEP [G15H]	1.66
QVANSAFVERVRKRNFEVVYMTEP [G15N]	2.61
QVANSAFVERVRKRWFEVVYMTEP [G15W]	1.91
QVANSAFVERVRKRFFEVVYMTEP [G15F]	2.21
QVANSAFVERVRKRKFEVVYMTEP [G15K]	2.12
QVANSAFVERVRKREFEVVYMTEP [G15E]	2.56
QVANSAFVERVRKRIFEVVYMTEP [G15I]	1.81
QVANSAFVERVRKRLFEVVYMTEP [G15L]	1.83
QVANSAFVERVRKRPFEVVYMTEP [G15P]	2.75
QVANSAFVERVRKRSFEVVYMTEP [G15S]	2.38
QVANSAFVERVRKIGFEVVYMTEP [R14I]	2.56
QVANSAFVERVRKGGFEVVYMTEP [R14G]	2.09
QVANSAFVERVRKPGFEVVYMTEP [R14P]	2.51
QVANSAFVERVRKHGFEVVYMTEP [R14H]	1.98
QVANSAFVERVRKSGFEVVYMTEP [R14S]	2.26
QVANSAFVERVRKYGFEVVYMTEP [R14Y]	2.21
QVANSAFVERVRKCGFEVVYMTEP [R14C]	1.36
QVANSAFVERVRKMGFEVVYMTEP [R14M]	1.6
QVANSAFVERVRKLGFEVVYMTEP [R14L]	2.03
QVANSAFVERVRKFGFEVVYMTEP [R14F]	1.92
QVANSAFVERVRKVGFEVVYMTEP [R14V]	1.65
QVANSAFVERVRKNGFEVVYMTEP [R14N]	2.69
QVANSAFVERVRKKGFEVVYMTEP [R14K]	2.54

Variant	protein stability index
QVANSAFVERVRKWGFEVVYMTEP [R14W]	2.16
QVANSAFVERVRKQGFEVVYMTEP [R14Q]	2.1
QVANSAFVERVRKDGFEVVYMTEP [R14D]	3.23
QVANSAFVERVRKEGFEVVYMTEP [R14E]	2.75
QVANSAFVDRVRKRGFEVVYMTEP [E9D]	2.56
QVANSAFVKRVRKRGFEVVYMTEP [E9K]	2.26
QVANSAFVARVRKRGFEVVYMTEP [E9A]	1.36
QVANSAFVNRVRKRGFEVVYMTEP [E9N]	1.9
QVANSAFVVRVRKRGFEVVYMTEP [E9V]	1.97
QVANSAFVHRVRKRGFEVVYMTEP [E9H]	2.27
QVANSAFVRRVRKRGFEVVYMTEP [E9R]	1.93
QVANSAFVMRVRKRGFEVVYMTEP [E9M]	2.69
QVANSAFVSRVRKRGFEVVYMTEP [E9S]	1.63
QVANSAFVLRVRKRGFEVVYMTEP [E9L]	3.24
QVANSAFVTRVRKRGFEVVYMTEP [E9T]	1.76
QVANSAFVGRVRKRGFEVVYMTEP [E9G]	2.74
QVANSAFVPRVRKRGFEVVYMTEP [E9P]	2.56
QVANSAFVQRVRKRGFEVVYMTEP [E9Q]	1.72
QVANSAFVYRVRKRGFEVVYMTEP [E9Y]	2.32
QVANSAFVCRVRKRGFEVVYMTEP [E9C]	2.07
QVANSAFVFRVRKRGFEVVYMTEP [E9F]	2.16
QVANSAFVWRVRKRGFEVVYMTEP [E9W]	3.56
